Laboratory results taken from patent publication US20020039577A1 (published 2002).

B1: human CD80 on stably transfected CHO cells (ligand, UniProt P33681 35-288, looked up)
chain: VIHVTKEVKEVATLSCGHNVSVEELAQTRIYWQKEKKMVLTMMSGDMNIWPEYKNRTIFDITNNLSIVILALRPSDEGTYECVVLKYEKDAFKREHLAEVTLSVKADFPTPSISDFEIPTSNIRRIICSTSGGFPEPHLSWLENGEELNAINTTVSQDPETELYAVSSKLDFNMTTNHSFMCLIKYGHLRVNQTFNWNTTKQEHFPDNLLPSWAITLISVNGIFVICCLTYCFAPRCRERRRNERLRRESVRPV
notes: whole, on cells; also called CD80-positive CHO cells; CD80+ CHO cells
B2: human CD86 on stably transfected CHO cells (ligand, UniProt P42081 24-329, looked up)
chain: APLKIQAYFNETADLPCQFANSQNQSLSELVVFWQDQENLVLNEVYLGKEKFDSVHSKYMGRTSFDSDSWTLRLHNLQIKDKGLYQCIIHHKKPTGMIRIHQMNSELSVLANFSQPEIVPISNITENVYINLTCSSIHGYPEPKKMSVLLRTKNSTIEYDGVMQKSQDNVTELYDVSISLSVSFPDVTSNMTIFCILETDKTRLLSSPFSIELEDPQPPPDHIPWITAVLPTVIICVMVFCLILWKWKKKKRPRNSYKCGTNTMEREESEQTKKREKIHIPERSDEAQRVFKSSKTSSCDKSDTCF
notes: whole, on cells; also called CD86-positive CHO cells; CD86+ CHO cells

How the values were obtained:
L104EA29YIg [1] = biological target: T1, L104EA29YIg (human, UniProt P16410 38-161; P01857 99-330 = IgG part, A29Y; L104E); assay: flow cytometry on human CD80-transfected CHO cells
T1 construct: extracellular domain;domain: hinge, CH2 and CH3 regions of IgC1; Same mobility as dimeric CTLA4Ig; Positions count from methionine +1, not on the UniProt precursor; also called double-site CTLA4 mutant molecule; ATCC PTA-2104
Procedure: (§1) Bound immunoglobulin fusion protein was detected using fluorescein isothiocyanate-conjugated goat anti-human immunoglobulin.
(§2) Binding on a total of 5,000 viable cells was analyzed (single determination) on a FACScan, and mean fluorescence intensity (MFI) was determined from data histograms using PC-LYSYS.

L104EA29YIg [2] = biological target: T1, L104EA29YIg; assay: flow cytometry on human CD86-transfected CHO cells
Procedure: as §1, §2

T1 sequence (P16410 other isoform, or with tags, fused parts or gaps A29Y/L104E): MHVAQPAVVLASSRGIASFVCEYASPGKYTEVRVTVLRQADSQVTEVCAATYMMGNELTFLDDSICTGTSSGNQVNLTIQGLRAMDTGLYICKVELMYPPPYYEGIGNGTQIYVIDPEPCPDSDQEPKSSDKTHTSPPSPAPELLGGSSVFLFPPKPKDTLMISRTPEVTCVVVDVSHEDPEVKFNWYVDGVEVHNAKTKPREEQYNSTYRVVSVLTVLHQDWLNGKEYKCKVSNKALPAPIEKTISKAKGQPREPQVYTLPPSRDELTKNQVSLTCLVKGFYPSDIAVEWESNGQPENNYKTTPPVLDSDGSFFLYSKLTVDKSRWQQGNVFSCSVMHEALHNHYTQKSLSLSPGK

Binder	binding result (L104EA29YIg [1])	binding result (L104EA29YIg [2])
B1	binds	–
B2	–	binds
